The results in this text go back to US20220162308A1 (Novartis, published 2022).

One test addresses T1, Human CD48 on cells (human, UniProt P09326 27-220).
T1 sequence: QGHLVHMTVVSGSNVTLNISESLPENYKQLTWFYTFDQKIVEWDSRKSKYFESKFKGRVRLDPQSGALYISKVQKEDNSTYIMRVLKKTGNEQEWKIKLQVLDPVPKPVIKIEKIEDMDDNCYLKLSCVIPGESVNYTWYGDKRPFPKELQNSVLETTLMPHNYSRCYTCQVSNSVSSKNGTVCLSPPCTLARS
The test is described as follows: cell-based or functional assay.

Another test has as its target T2, 2249 (Homo sapiens, UniProt P09326).
T2 chain: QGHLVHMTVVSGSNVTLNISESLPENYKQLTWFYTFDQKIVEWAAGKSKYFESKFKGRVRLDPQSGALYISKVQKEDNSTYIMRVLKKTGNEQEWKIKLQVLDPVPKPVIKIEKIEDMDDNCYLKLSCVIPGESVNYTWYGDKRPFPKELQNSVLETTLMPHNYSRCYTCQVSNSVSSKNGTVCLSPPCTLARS
The test is described as follows: ELISA: 1:10 diluted HEK293T supernatant of the CD48-mouse IgG construct; antibody at 25, 250 and 500 ng/mL; detection with goat anti-mouse IgG (H+L) HRP; Mean OD450-570. As to the method:
(§1) Applying the 3D structure models of the CD48 protein, three exposed loops of the protein were selected and changed by site directed mutagenesis utilizing PCR. Antibody binding epitopes were determined by ELISA. […] The template construct, hCD48EC:mouse-Ig originates from the expression plasmid generated to express the human CD48-mouse IgG1 fusion protein for immunization amplified from the commercial vector “Trueclone, CD48 (untagged)-Human CD48 molecule” (Origene, NM_001778.2). Primer for the site directed mutagenesis were synthesized by Microsynth (Switzerland).
(In general: In an ELISA, binding on a coated surface is turned into a signal by an enzyme label.)

Test [1] has as its target T3, Non-mutated CD48-mouse IgG fusion construct (human; mouse, UniProt P09326 27-220, limits assumed).
T3 construct: Used as HEK293T culture supernatant in the ELISA; also called hCD48EC:mouse-Ig; human CD48-mouse IgG1 fusion protein
T3 sequence: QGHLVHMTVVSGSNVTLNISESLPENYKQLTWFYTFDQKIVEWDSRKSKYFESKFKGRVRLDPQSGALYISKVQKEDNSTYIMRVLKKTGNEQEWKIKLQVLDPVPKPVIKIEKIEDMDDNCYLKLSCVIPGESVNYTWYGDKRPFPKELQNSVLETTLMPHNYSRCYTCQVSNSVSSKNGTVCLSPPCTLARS
Described as above. As to the method:
as §1

Another test addresses T4, Construct #2248 (human; mouse, UniProt P09326 27-220, limits assumed).
T4 construct: also called hCD48EC:mouse-Ig with ENYKQ modified into GSSKQ
T4 chain: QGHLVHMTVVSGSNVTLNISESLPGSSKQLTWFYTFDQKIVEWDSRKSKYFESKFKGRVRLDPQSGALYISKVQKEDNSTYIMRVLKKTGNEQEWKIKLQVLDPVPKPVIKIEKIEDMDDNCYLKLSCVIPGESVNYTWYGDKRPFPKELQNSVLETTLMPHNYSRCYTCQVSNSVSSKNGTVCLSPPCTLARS
Described as above. As to the method:
as §1

The next test has as its target T5, Construct #2250 (human; mouse, UniProt P09326 27-220, limits assumed).
T5 construct: also called hCD48EC:mouse-Ig with KKTGNE modified into KKDASG
T5 chain: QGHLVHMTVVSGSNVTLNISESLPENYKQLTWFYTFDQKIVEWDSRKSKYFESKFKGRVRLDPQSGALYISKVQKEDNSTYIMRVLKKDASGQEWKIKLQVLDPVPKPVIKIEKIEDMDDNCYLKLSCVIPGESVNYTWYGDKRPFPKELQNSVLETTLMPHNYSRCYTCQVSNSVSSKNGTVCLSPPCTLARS
Described as above. As to the method: as §1

In test [2] the target is T6, Human CD48 (soluble recombinant, SPR analyte) (human, UniProt P09326 27-220).
T6 construct: also called Human CD48 antigen; not shown: C-terminal tag (hFc1P, APP6-Avi or His) is not specified for the analyte
T6 sequence: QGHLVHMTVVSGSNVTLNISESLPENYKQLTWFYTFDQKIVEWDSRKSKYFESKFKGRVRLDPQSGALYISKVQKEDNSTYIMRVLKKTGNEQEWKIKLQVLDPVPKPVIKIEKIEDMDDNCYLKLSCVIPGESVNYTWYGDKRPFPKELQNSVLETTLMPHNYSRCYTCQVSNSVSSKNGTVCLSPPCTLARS
The test is described as follows: SPR Biacore T200, antibody captured on protein A chip, soluble CD48 as analyte, 25 C, 1:1 model. As to the method:
(§2) HBS-EP+pH 7.4 containing 10 mM HEPES, 150 mM NaCl, 3 mM EDTA and 0.05% (v/v) surfactant P20 (Teknova, ordering #H8022) was used as running buffer as well as for sample dilution.
(§3) The anti-CD48 antibodies were diluted at 5 μg/ml and injected on flow cells 2 and 4 for 20 sec at 10 μl/min. Capture level for all antibodies was 370-440 RU. Flow cells 1 and 3 were left blank (no antibody captured) and used as a reference surface. Human and cynomolgus CD48 served as analytes in solution. […] After each cycle of antibody capture and analyte injection, the chip surface was regenerated with 10 mM Glycine-HCl pH 1.5 (Cytiva, ordering #BR100354) for 2×30 s at a flow rate of 50 μl/min. Three runs with duplicate measurements and buffer blank injections were performed. Measurements were executed at 25° C. and data collected at a rate of 10 Hz.
(§4) Data were evaluated using the Biacore 8K evaluation software. The raw data were double referenced, i.e. the response of the measuring flow cells was corrected for the response of the reference flow cells (no antibody captured), and in a second step the response of a blank injection (buffer) was subtracted. Finally, the sensorgrams were fitted by applying a 1:1 interaction model with a constant fit of RI (0) and a global fit for Rₘₐₓ. Kinetic rate constants (kₐ, kd) and equilibrium dissociation constants (KD) were calculated. Data were processed separately for each run. The generated values were used to calculate average values and standard deviations of the respective equilibrium dissociation constants and the kinetic rate constants.
A general note: In SPR one partner is held on a chip, and binding of the other changes the refractive index at the surface.

The target in test [3] is T7, Cynomolgus CD48 (soluble recombinant, SPR analyte) (cynomolgus monkey (Macaca fascicularis), UniProt P09326 30-225 (human entry)).
T7 construct: also called cyno CD48; Cyno CD48; not shown: C-terminal tag (hFc1P, APP6-Avi or His) is not specified for the analyte
T7 chain: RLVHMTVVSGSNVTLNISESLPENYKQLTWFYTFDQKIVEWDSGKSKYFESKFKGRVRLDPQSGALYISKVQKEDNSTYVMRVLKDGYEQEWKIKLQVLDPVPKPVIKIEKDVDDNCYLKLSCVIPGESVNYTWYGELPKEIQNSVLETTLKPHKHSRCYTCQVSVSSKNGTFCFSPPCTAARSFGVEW
The test is described as above. As to the method:
as §2, §3, §4

The target of test [4] is T6, Human CD48 (soluble recombinant, SPR …). The test is described as follows: SPR Biacore T200, antibody captured on Protein A chip, soluble CD48 as analyte, 1:1 model, Exp 1. As to the method:
(§5) Binding to human and cyno CD48 for the WT IgG and DAPA (D265A and P329A mutation) variant was assessed for affinity determinations using Biacore. Kinetic rate constants was performed via SPR using the Biacore T200 instrument (Cytiva, formerly GE Healthcare Lifesciences) as described below.
(§6) The Protein A capture method was utilized in order to determine kinetics for the antibodies. […] The human CD48 and cyno CD48 concentration started at 50 nM and 200 nM respectively, and were serially diluted at one part to one part for nine concentrations. Regeneration was performed at the end of each concentration washing with the Glycine pH1.5 (Cytiva, cat #BR100354).
(§7) Double reference subtraction was completed to generate the final data. The raw data was fitted to a 1:1 binding model, with parameter(s) Rmax set to local.

In test [5] the target is T7, Cynomolgus CD48 (soluble recombinant, …). The description is as above. As to the method:
as §5, §6, §7

For test [6], the target named is T6, Human CD48 (soluble recombinant, SPR …). The test is described as follows: SPR Biacore T200, antibody captured on Protein A chip, soluble CD48 as analyte, 1:1 model, Exp 2. As to the method:
as §5, §6, §7

In test [7] the target is T7, Cynomolgus CD48 (soluble recombinant, …). Described as above. As to the method: as §5, §6, §7

B1: humanized CD48A (antibody, human IgG1, kappa)
heavy: not shown
light: EIVLTQSPDFQSVTPKEKVTITCRASQSIGSNIHWYQQKPDQSPKLLIKYTSESISGVPSRFSGSGSGTDFTLTINSLEAEDAATYYCQQSNSWPLTFGGGTKVEIKRTVAAPSVFIFPPSDEQLKSGTASVVCLLNNFYPREAKVQWKVDNALQSGNSQESVTEQDSKDSTYSLSSTLTLSKADYEKHKVYACEVTHQGLSSPVTKSFNRGEC
notes: also called humanized MEM102 antibody; anti-CD48A
B1: in the test with Human CD48 on cells, the “IC50 (nM), cell proliferation/survival (CellTiter-Glo), KMS-21-BM, with anti-human Fc-VC-MMAE” value was determined as 0.016 nM; the “IC50 (nM), cell proliferation/survival (CellTiter-Glo), KMS-27, with anti-human Fc-VC-MMAE” value is 0.001 nM; the “IC50 (nM), cell proliferation/survival (CellTiter-Glo), NCI-H929, with anti-human Fc-VC-MMAE” value came to 0.007 nM; the “Span (Amax), KMS-21-BM, with anti-human Fc-VC-MMAE” value is 92. Further, in the test with Human CD48 on cells, the “Span (Amax), KMS-27, with anti-human Fc-VC-MMAE” value is 93.4 and the “Span (Amax), NCI-H929, with anti-human Fc-VC-MMAE” value came to 100. Also, the EC50 (read off the curve) (commonly the concentration at which the effect is half-maximal) with 2249 is approximately 0.03 µg/mL. For the same molecule, the “EC50 (read off the curve)” value in test [1] was approximately 0.02 µg/mL. Further, in the test with Construct #2248, the binding result was “no binding (tested: 500 ng/mL)”. Also, in the test with Construct #2250, the “EC50 (read off the curve)” value was approximately 0.02 µg/mL.

B2: CD48A-CysMab-VC-MMAE (antibody, human IgG1, kappa)
heavy: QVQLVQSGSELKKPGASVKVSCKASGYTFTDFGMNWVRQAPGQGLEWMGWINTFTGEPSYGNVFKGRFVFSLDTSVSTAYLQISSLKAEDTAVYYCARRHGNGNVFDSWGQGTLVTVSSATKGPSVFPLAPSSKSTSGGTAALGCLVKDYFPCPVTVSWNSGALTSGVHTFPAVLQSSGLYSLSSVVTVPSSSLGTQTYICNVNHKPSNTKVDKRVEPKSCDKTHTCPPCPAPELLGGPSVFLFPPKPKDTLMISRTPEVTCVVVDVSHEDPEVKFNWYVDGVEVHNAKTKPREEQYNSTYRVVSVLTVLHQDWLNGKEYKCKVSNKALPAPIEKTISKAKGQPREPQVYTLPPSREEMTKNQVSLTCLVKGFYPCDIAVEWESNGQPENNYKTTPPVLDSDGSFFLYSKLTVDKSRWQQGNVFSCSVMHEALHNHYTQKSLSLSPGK
light: EIVLTQSPDFQSVTPKEKVTITCRASQSIGSNIHWYQQKPDQSPKLLIKYTSESISGVPSRFSGSGSGTDFTLTINSLEAEDAATYYCQQSNSWPLTFGGGTKVEIKRTVAAPSVFIFPPSDEQLKSGTASVVCLLNNFYPREAKVQWKVDNALQSGNSQESVTEQDSKDSTYSLSSTLTLSKADYEKHKVYACEVTHQGLSSPVTKSFNRGEC
modifications: MC-valcit-PAB-MMAE on the engineered cysteines (CysMab: E152C, S375C, EU numbering); DAR 3.9
With B2, in the test with Human CD48 on cells, the “IC50 (nM), cell proliferation/survival (CellTiter-Glo), KMS-21-BM” value is 0.062 nM; the “IC50 (nM), cell proliferation/survival (CellTiter-Glo), KMS-27” value turned out to be 6.1 nM; the “IC50 (nM), cell proliferation/survival (CellTiter-Glo), NCI-H929” value came to 2.1 nM.

B3: NY938 (antibody, human IgG1, kappa)
heavy: not shown
light: DIQMTQSPSSLSASVGDRVTITCKASQDVGTAVAWYQQKPGKVPKLLIYWASTRHTGVPSRFSGSGSGTDFTLTISSLQPEDVATYYCQQYSTYPITFGQGTKLEIKRTVAAPSVFIFPPSDEQLKSGTASVVCLLNNFYPREAKVQWKVDNALQSGNSQESVTEQDSKDSTYSLSSTLTLSKADYEKHKVYACEVTHQGLSSPVTKSFNRGEC
notes: also called anti-CD48-NY938-hIgG1_kappa (a-fuc); NY938-IgG
Turning to B3, in the test with Human CD48 on cells, the “IC50 (nM), cell proliferation/survival (CellTiter-Glo), KMS-21-BM, with anti-human Fc-VC-MMAE” value worked out at 0.008 nM; the “IC50 (nM), cell proliferation/survival (CellTiter-Glo), KMS-27, with anti-human Fc-VC-MMAE” value was less than 0.001 nM; the “IC50 (nM), cell proliferation/survival (CellTiter-Glo), NCI-H929, with anti-human Fc-VC-MMAE” value was found to be 0.004 nM; the “Span (Amax), KMS-21-BM, with anti-human Fc-VC-MMAE” value is 98.9. In the test with Human CD48 on cells, the “Span (Amax), KMS-27, with anti-human Fc-VC-MMAE” value was more than 100 and the “Span (Amax), NCI-H929, with anti-human Fc-VC-MMAE” value is 99.7. In test [2], the Kd (in general, the concentration at which binding is half-saturated) was determined as 0.5 nM; the koff (commonly the rate constant with which the complex falls apart) stood at 0.00013 s⁻¹; the kon (usually the second-order rate constant of association) turned out to be 250000 M⁻¹ s⁻¹. In [3], the Kd was 1.5 nM, the koff was determined as 0.00037 s⁻¹ and the kon was determined as 250000 M⁻¹ s⁻¹.

B4: NY938 DAPA (antibody, human IgG1, kappa, name in EU numbering)
heavy: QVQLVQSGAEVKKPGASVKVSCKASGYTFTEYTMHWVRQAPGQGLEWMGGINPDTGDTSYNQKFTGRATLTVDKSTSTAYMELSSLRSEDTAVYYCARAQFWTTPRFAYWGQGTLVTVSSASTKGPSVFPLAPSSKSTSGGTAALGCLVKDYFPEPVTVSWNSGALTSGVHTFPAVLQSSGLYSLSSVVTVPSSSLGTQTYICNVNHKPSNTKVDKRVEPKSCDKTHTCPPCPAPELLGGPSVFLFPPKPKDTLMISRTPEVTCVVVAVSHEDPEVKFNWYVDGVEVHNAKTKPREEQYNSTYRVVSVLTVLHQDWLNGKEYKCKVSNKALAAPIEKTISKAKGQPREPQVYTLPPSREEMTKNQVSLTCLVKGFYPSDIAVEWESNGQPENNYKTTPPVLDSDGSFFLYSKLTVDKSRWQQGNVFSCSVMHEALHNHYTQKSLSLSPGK
light: DIQMTQSPSSLSASVGDRVTITCKASQDVGTAVAWYQQKPGKVPKLLIYWASTRHTGVPSRFSGSGSGTDFTLTISSLQPEDVATYYCQQYSTYPITFGQGTKLEIKRTVAAPSVFIFPPSDEQLKSGTASVVCLLNNFYPREAKVQWKVDNALQSGNSQESVTEQDSKDSTYSLSSTLTLSKADYEKHKVYACEVTHQGLSSPVTKSFNRGEC
notes: Positions are EU numbers; also called NY938 DAPA IgG variant
On to B4, for which the Kd in test [4] worked out at 0.296 nM; in [5] it was 1.07 nM; in test [6], 0.252 nM; in test [7] it was 0.774 nM. Besides, the koff was 0.000104 s⁻¹ in [4], 0.000289 s⁻¹ in test [5], 0.000115 s⁻¹ in test [6] and 0.000316 s⁻¹ in test [7]. Besides, the kon in test [4] worked out at 352000 M⁻¹ s⁻¹; in test [5] it was 271000 M⁻¹ s⁻¹; in test [6], 456000 M⁻¹ s⁻¹; in test [7], 409000 M⁻¹ s⁻¹.
